Laboratory results: PMC12365614, “Bipartite chromatin recognition by Hop1 from two diverged Holozoa”
Substitutions are numbered along the chain they refer to.

What was measured:
[1] = tested on: S. mansoni Hop1 CBR WT (Schistosoma mansoni); experiment: fluorescence polarization; settings: FP: 20 mM Tris-HCl pH 8, 100 mM Na glutamate, 5 mM MgCl2, 3% glycerol, 0.5 mM BME, 50 nM DNA, 4 C 30 min; EMSA: 20 mM Hepes pH 7, 100 mM NaCl, 100 uM ZnCl2, 10%
[2] = biological target: T1, P. miniata Hop1 CBR R477A (Patiria miniata, UniProt A0A913ZKG6 352-499, R477A); experiment: fluorescence polarization; FP: 20 mM Tris-HCl pH 8, 100 mM Na glutamate, 5 mM MgCl2, 3% glycerol, 0.5 mM BME, 50 nM DNA, 4 C 30 min; EMSA: 20 mM Hepes pH 7, 100 mM NaCl, 100 uM ZnCl2, 10% glycerol, 2 mM BME, 4 C 60 min; settings: protein: recombinant; tags: N-terminal His6-GST (uncleaved); label: 5' 6-FAM on strand 1; blunt
T1 sequence: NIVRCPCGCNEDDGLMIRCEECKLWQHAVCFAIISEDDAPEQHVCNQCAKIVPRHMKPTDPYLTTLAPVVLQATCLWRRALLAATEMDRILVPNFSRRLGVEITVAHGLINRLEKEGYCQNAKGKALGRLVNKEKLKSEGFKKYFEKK

[3] = biological target: T2, P. miniata Hop1 CBR WT (GST) (Patiria miniata, UniProt A0A913ZKG6 352-499); experiment: as above; settings: protein: recombinant; tags: N-terminal His6-GST (uncleaved); label: 5' 6-FAM on strand 1; blunt
T2 sequence: T1 sequence with A126R

[4] = biological target: T3, P. miniata Hop1 CBR R463A (Patiria miniata, UniProt A0A913ZKG6 352-499, R463A); experiment: as above; settings: protein: recombinant; tags: N-terminal His6-GST (uncleaved); label: 5' 6-FAM on strand 1; blunt
T3 sequence: T1 sequence with R112A, A126R

## CTTATATCTGAATAGTCAGT (double strand) [20-bp FAM duplex]
[1]
  Kd: 16 µM

B1: 20-bp FAM duplex (dsDNA)
DNA 1: CTTATATCTGAATAGTCAGT
DNA 2: ACTGACTATTCAGATATAAG
[2]
  binding result: no binding
[3]
  Kd: 16 µM
[4]
  binding result: no binding
